Tested on: CD34-expressing LT-HSPCs
Test: Indel formation at HBB locus by TIDE analysis
Assay type: cell-based, human
Settings: RNP of Cas9 and R02 gRNA only; TIDE; FIG. 11
Experimental: Editing efficiency at the HBB locus was evaluated by measuring indel formation by TIDE analysis. […] This group had 1.7-fold reduction in INDEL frequency relative to cells treated with RNP+AAV,

B1: R02 gRNA: sgRNA targeting the HBB locus (SEQ ID NO: 17), used as RNP with Cas9 (nucleic acid)
guide: CNUNUNGCCCCACAGGGCAGUAAGUUUUAGAGCUAGAAAUAGCAAGUUAAAAUAAGGCUAGUCCGUUAUCAACUUGAAAAAGUGGCACCGAGUCGGUGCUNUNUNU
modifications: Synthetic gRNA-related, HBB sgRNA; modified_base (1)..(6) every c and u is a 2′ O-methyl phosphorothioate nucleotide; (2)..(2) n is a phosphorothioate nucleotide; (4)..(4) n is a phosphorothioate nucleotide; (6)..(6) n is a phosphorothioate nucleotide; modified_base (100)..(104) every u is a 2′ O-methyl phosphorothioate nucleotide; (101)..(101) n is a phosphorothioate nucleotide; (103)..(103) n is
With B1 the indel formation was 94%.

Reference: patent US20210008161A1, “METHODS AND COMPOSITIONS FOR IMPROVED HOMOLOGY DIRECTED REPAIR” (CRISPR THERAPEUTICS AG, priority 2019, published 2021)
